Read-outs that look alike come from different tables or passages of the source. One block for each binder: values may come before it.
Key:
HER3 (on tumor cells) [1] = molecular target: T1, HER3 (on tumor cells) (UniProt P21860 20-1342, limits assumed); experiment: flow cytometry on SKBR-3 cells
T1 construct: whole, on cells; also called HER3 on MCF-7, SKBR-3 (SKBR3) and FaDu cells

HER3 (on tumor cells) [2] = molecular target: T1, HER3 (on tumor cells); experiment: flow cytometry on FaDu cells
HER3 (on tumor cells) [3] = molecular target: T1, HER3 (on tumor cells); experiment: flow cytometry on MCF-7 cells
HER3 (on tumor cells) [4] = molecular target: T1, HER3 (on tumor cells); experiment: flow cytometry on SKBR-3 cells; remark: listed apart in the source
HER3 (on tumor cells) [5] = molecular target: T1, HER3 (on tumor cells); experiment: flow cytometry on FaDu cells; remark: listed apart in the source
HER3 (on tumor cells) [6] = molecular target: T1, HER3 (on tumor cells); experiment: flow cytometry on MCF-7 cells; remark: listed apart in the source
HER3-Fc fusion protein [7] = molecular target: T2, HER3-Fc fusion protein (UniProt P21860 21-643); experiment: ELISA, coated HER3-Fc, anti-human Fab-HRP
T2 construct: range 21-643; Coated antigen in ELISA; not shown: Fc part of the fusion, not described

EGFR-Fc fusion protein [8] = molecular target: T3, EGFR-Fc fusion protein (UniProt P00533 25-645); experiment: ELISA, coated EGFR-Fc, anti-human Fab-HRP
T3 construct: range 25-645; Coated antigen in ELISA; not shown: Fc part of the fusion, not described

HER3 (on tumor cells) [9] = molecular target: T1, HER3 (on tumor cells); experiment: flow cytometry on HER3-positive MCF-7 cells
HER3-His [10] = molecular target: T4, HER3-His (UniProt P21860 21-643); experiment: simultaneous binding ELISA: coated EGFR-Fc, Db titrated, HER3-His 300 nM added, anti-His-HRP
T4 construct: range 21-643; also called His-tagged HER3; second antigen

EGFR-Fc fusion protein [11] = molecular target: T3, EGFR-Fc fusion protein; experiment: ELISA, coated EGFR-Fc, anti-human Fab-HRP; remark: listed apart in the source
HER3-Fc fusion protein [12] = molecular target: T2, HER3-Fc fusion protein; experiment: ELISA, coated HER3-Fc, anti-human Fab-HRP; remark: listed apart in the source
HER3 (on tumor cells) [13] = molecular target: T1, HER3 (on tumor cells); experiment: flow cytometry on HER3-positive MCF-7 cells; remark: listed apart in the source
HER3-His [14] = molecular target: T4, HER3-His; experiment: simultaneous binding ELISA: coated EGFR-Fc, Db titrated, HER3-His 300 nM added, anti-His-HRP; remark: listed apart in the source
HER3-His [15] = molecular target: T4, HER3-His; experiment: ELISA, coated His-tagged HER3 ECD, anti-human Fc-HRP
HER3-His [16] = molecular target: T4, HER3-His; experiment: simultaneous binding ELISA: coated EGFR-Fc, Db titrated, HER3-His 300 nM added, anti-His-HRP; remark: listed apart in the source
EGFR-His = molecular target: T5, EGFR-His (UniProt P00533 25-645); experiment: ELISA, coated His-tagged EGFR ECD, anti-human Fc-HRP
T5 construct: range 25-645; also called His-tagged EGFR

HER3-His [17] = molecular target: T4, HER3-His; experiment: simultaneous binding ELISA: coated EGFR-Fc, Db titrated, HER3-His 300 nM added, anti-His-HRP; remark: listed apart in the source

EC50 (HER3 (on tumor cells) [1]): 0.022 nM
EC50 (HER3 (on tumor cells) [2]): 3 pM
EC50 (HER3 (on tumor cells) [3]): 0.021 nM
B1: 3-43-IgG (antibody, V domains shown)
VH: QVQLQQSGPGLVKPSQTLSLTCAISGDSVSSNRAAWNWIRQSPSRGLEWLGRTYYRSKWYNDYAQSLKSRITINPDTPKNQFSLQLNSVTPEDTAVYYCARDGQLGLDALDIWGQGTMVTVSS
VL: QAGLTQPPAVSVAPGQTASITCGRDNIGSRSVHWYQQKPGQAPVLVVYDDSDRPAGIPERFSGSNYENTATLTISRVEAGDEADYYCQVWGITSDHVVFGGGTKLTVL

EC50 (HER3 (on tumor cells) [4]): 0.44 nM
EC50 (HER3 (on tumor cells) [5]): 7.5 nM
EC50 (HER3 (on tumor cells) [6]): 1.18 nM
EC50 (HER3-Fc fusion protein [7]): 0.7 nM
B2: 3M6-IgG (antibody, V domains shown)
VH: EVQLLESGGGLVQPGGSLRLSCAASGFTFSHYVMAWVRQAPGKGLEWVSSISSSGGWTLYADSVKGRFTISRDNSKNTLYLQMNSLRAEDTAVYYCTRGLKMATIFDYWGQGTLVTVSS
VL: QSALTQPASVSGSPGQSITISCTGTSSDVGSYNVVSWYQQHPGKAPKLIIYEVSQRPSGVSNRFSGSKSGNTASLTISGLQTEDEADYYCSSYAGSSIFVIFGGGTKVTVL

EC50 (EGFR-Fc fusion protein [8]): 0.48 nM
EC50 (HER3 (on tumor cells) [9]): 1.54 nM
EC50 (HER3-Fc fusion protein [7]): 1.4 nM
EC50 (HER3-His [10]): 1.3 nM
B3: Db3M6xhu225-Ig (bispecific antibody, human IgG1, kappa)
heavy: EVQLVESGGGLVQPGGSLRLSCAASGFSLTNYGVHWVRQAPGKGLEWLGVIWSGGNTDYNTPFTSRFTISRDNSKNTLYLQMNSLRAEDTAVYYCARALTYYDYEFAYWGQGTTVTVSSGGGGSQSALTQPASVSGSPGQSITISCTGTSSDVGSYNVVSWYQQHPGKAPKLIIYEVSQRPSGVSNRFSGSKSGNTASLTISGLQTEDEADYYCSSYAGSSIFVIFGGGTKVTVLASTKGPSVFPLAPSSKSTSGGTAALGCLVKDYFPEPVTVSWNSGALTSGVHTFPAVLQSSGLYSLSSVVTVPSSSLGTQTYICNVNHKPSNTKVDKKVEPKSCDKTHTCPPCPAPPVAGPSVFLFPPKPKDTLMISRTPEVTCVVVDVSHEDPEVKFNWYVDGVEVHNAKTKPREEQYNSTYRVVSVLTVLHQDWLNGKEYKCKVSNKGLPSSIEKTISKAKGQPREPQVYTLPPSRDELTKNQVSLTCLVKGFYPSDIAVEWESNGQPENNYKTTPPVLDSDGSFFLYSKLTVDKSRWQQGNVFSCSVMHEALHNHYTQKSLSLSPGK
light: EVQLLESGGGLVQPGGSLRLSCAASGFTFSHYVMAWVRQAPGKGLEWVSSISSSGGWTLYADSVKGRFTISRDNSKNTLYLQMNSLRAEDTAVYYCTRGLKMATIFDYWGQGTLVTVSSGGGGSDIQLTQSPSFLSASVGDRVTITCRASQSIGTNIHWYQQKPGKAPKLLIKYASESISGVPSRFSGSGSGTEFTLTISSLQPEDFATYYCQQNNNWPTTFGAGTKLEIKRTVAAPSVFIFPPSDEQLKSGTASVVCLLNNFYPREAKVQWKVDNALQSGNSQESVTEQDSKDSTYSLSSTLTLSKADYEKHKVYACEVTHQGLSSPVTKSFNRGEC
notes: also called bispecific, tetravalent Diabody-Ig targeting EGFR (hu225) and HER3 (3M6); DbEGFRxHER3-Ig

EC50 (EGFR-Fc fusion protein [11]): 0.43 nM
EC50 (HER3-Fc fusion protein [12]): 0.34 nM
EC50 (HER3 (on tumor cells) [13]): 0.054 nM
EC50 (HER3-His [14]): 0.85 nM
B4: Db3-43xhu225-Ig (bispecific antibody, human IgG1, kappa)
heavy: EVQLVESGGGLVQPGGSLRLSCAASGFSLTNYGVHWVRQAPGKGLEWLGVIWSGGNTDYNTPFTSRFTISRDNSKNTLYLQMNSLRAEDTAVYYCARALTYYDYEFAYWGQGTTVTVSSGGGGSQAGLTQPPAVSVAPGQTASITCGRDNIGSRSVHWYQQKPGQAPVLVVYDDSDRPAGIPERFSGSNYENTATLTISRVEAGDEADYYCQVWGITSDHVVFGGGTKLTVLASTKGPSVFPLAPSSKSTSGGTAALGCLVKDYFPEPVTVSWNSGALTSGVHTFPAVLQSSGLYSLSSVVTVPSSSLGTQTYICNVNHKPSNTKVDKKVEPKSCDKTHTCPPCPAPPVAGPSVFLFPPKPKDTLMISRTPEVTCVVVDVSHEDPEVKFNWYVDGVEVHNAKTKPREEQYNSTYRVVSVLTVLHQDWLNGKEYKCKVSNKGLPSSIEKTISKAKGQPREPQVYTLPPSRDELTKNQVSLTCLVKGFYPSDIAVEWESNGQPENNYKTTPPVLDSDGSFFLYSKLTVDKSRWQQGNVFSCSVMHEALHNHYTQKSLSLSPGK
light: QVQLQQSGPGLVKPSQTLSLTCAISGDSVSSNRAAWNWIRQSPSRGLEWLGRTYYRSKWYNDYAQSLKSRITINPDTPKNQFSLQLNSVTPEDTAVYYCARDGQLGLDALDIWGQGTMVTVSSGGGGSDIQLTQSPSFLSASVGDRVTITCRASQSIGTNIHWYQQKPGKAPKLLIKYASESISGVPSRFSGSGSGTEFTLTISSLQPEDFATYYCQQNNNWPTTFGAGTKLEIKRTVAAPSVFIFPPSDEQLKSGTASVVCLLNNFYPREAKVQWKVDNALQSGNSQESVTEQDSKDSTYSLSSTLTLSKADYEKHKVYACEVTHQGLSSPVTKSFNRGEC
notes: also called bispecific, tetravalent Diabody-Ig targeting EGFR (hu225) and HER3 (3-43) using CH1 and CL; DbEGFRxHER3-Ig

EC50 (HER3-His [15]): 0.34 nM
EC50 (HER3-His [16]): 1.8 nM
EC50 (EGFR-His): 0.23 nM
EC50 (HER3-His [17]): 1.9 nM
B5: Db3-43xhu225-MHD2-Fc (bispecific antibody)
heavy: EVQLVESGGGLVQPGGSLRLSCAASGFSLTNYGVHWVRQAPGKGLEWLGVIWSGGNTDYNTPFTSRFTISRDNSKNTLYLQMNSLRAEDTAVYYCARALTYYDYEFAYWGQGTTVTVSSGGGGSQAGLTQPPAVSVAPGQTASITCGRDNIGSRSVHWYQQKPGQAPVLVVYDDSDRPAGIPERFSGSNYENTATLTISRVEAGDEADYYCQVWGITSDHVVFGGGTKLTVLASAELPPKVSVFVPPRDGFFGNPRKSKLICQATGFSPRQIQVSWLREGKQVGSGVTTDQVQAEAKESGPTTYKVTSTLTIKESDWLGQSMFTCRVDHRGLTFQQNASSMCVPDDKTHTCPPCPAPPVAGPSVFLFPPKPKDTLMISRTPEVTCVVVDVSHEDPEVKFNWYVDGVEVHNAKTKPREEQYNSTYRVVSVLTVLHQDWLNGKEYKCKVSNKGLPSSIEKTISKAKGQPREPQVYTLPPSRDELTKNQVSLTCLVKGFYPSDIAVEWESNGQPENNYKTTPPVLDSDGSFFLYSKLTVDKSRWQQGNVFSCSVMHEALHNHYTQKSLSLSPGK
light: QVQLQQSGPGLVKPSQTLSLTCAISGDSVSSNRAAWNWIRQSPSRGLEWLGRTYYRSKWYNDYAQSLKSRITINPDTPKNQFSLQLNSVTPEDTAVYYCARDGQLGLDALDIWGQGTMVTVSSGGGGSDIQLTQSPSFLSASVGDRVTITCRASQSIGTNIHWYQQKPGKAPKLLIKYASESISGVPSRFSGSGSGTEFTLTISSLQPEDFATYYCQQNNNWPTTFGAGTKLEIKRTAELPPKVSVFVPPRDGFFGNPRKSKLICQATGFSPRQIQVSWLREGKQVGSGVTTDQVQAEAKESGPTTYKVTSTLTIKESDWLGQSMFTCRVDHRGLTFQQNASSMCVPD
notes: homodimeric Fc part

Source: patent publication US20210002376A1 (UNIVERSIT T STUTTGART, published 2021)
